Numbering of substitutions follows the chain as printed. Several values for one entry are separate records, joined by “and”; a condition that tells them apart may be missing. Identical values can stand only once. Like-named read-outs stand apart in the source and are kept apart here.
B1: 8-H5-A (antibody, V domains shown)
VH: QVTLKESGPGILQSSQTLSLTCSLSGFSLSTSGMGVSWVRQPSGKGLEWLAHIYWDDDKRYTPSLKSRLTISTDSSRKQVFLKITSVDTADTATYYCARRDLHDYDGWFAYWGQGTLVTVSA
VL: DIVMTQSQKFMSTAVGDRVSVTCKASQNVGTNVAWYQQKPGQSPKALIYSASFRYSGVPDRFSGSGSGTDFTLTISNVQSEDLAEYFCQQYNSYPLTFGSGTKLEIK
B2: 4-N22-A (antibody, V domains shown)
VH: QVQLQQPGTELVKPGASVKLSCKASGYTFTNYWMYWVKQRPGQGLDWIGNINPSNGGTNYNEKFKSKATLTVDKSSSTAYMQLSSLTSEDSAVYYCARETGNYWGQGTTLTVSS
VL: DILMTQSPSSMSVSLGDTVSISCHASQGISSNIGWLQQKPGKSFKGLIYHGTNLEDGVPSRFSGSGSGADYSLTISSLESEDFADYYCVQYAQFPYTFGGGTKLEIK
B3: 4-M3-A (antibody, V domains shown)
VH: EVQLQQSGPELVKPGDSVKISCKASGYSFTGYFMNWVMQSHGKSLEWIGRINPNNGETFYNQKFKGKATLTVDKSSDTAHMELRSLTSEDSAVYYCARGGTGTGWGQGTTLTVSS
VL: B2 VL with S22T, H50Y, F83L, V89I
B4: 3-E2-A (antibody, V domains shown)
VH: EVQLQQSGPELVKPGASVKISCKASGYTFTDYYMNWVKQSHGKSLEWIGDINPNNGGTSYTQKFKGKATLTVDKSSSKAYMELRSLTSEDSAVYYCARRGDGHYGGFTYWGQGTLVTVSA
VL: not shown
B5: 10-L24-A (antibody, V domains shown)
VH: B4 VH with P53S, S59T, T61D, K74R, K78T, Y104F
VL: not shown
B6: 2-O12-A (antibody, V domains shown)
VH: B4 VH with P53S, S59T, T61D, K74R, K78T, Y104F
VL: not shown
B7: 1-B11-A (antibody, V domains shown)
VH: QVQLQQSGPELVKPGASVKISCKASGYTFTDHYINWVKQRPGQGLEWIGWIFPGSGSTYYNEQFKGKATLTVDKSSNTAYMLLSSLTSEDSAVYFCARSGGLRLGFAYWGQGTLVTVSA
VL: DIQMTQTTSSLSASLGDRVTISCRASQDISNYLNWYQQKPDGTVKLLIYYTSRLHSGVPSRFSGSGSGTDYSLTISNLEQEDISTYFCQQVNTLPYTFGGGTKLEIK
B8: 2-H7-A (antibody, V domains shown)
VH: QAYLQQSGAELVRPGASVKMSCKASGYTFTGYTMHWVKQTPRQGLEWIGAIYPENGDTSYNQKFKGKATLTVDKSSSTAYMQLSSLTSEDSAVYFCARDGYDVLYGMDYWGQGTSVTVSS
VL: DIVLTQSPASLAVSLGQRATISCRASKSVSTSGYSYMHWYQQKPGQPPKLLIYLASNLESGVPARFSGSGSGTDFTLNIHPVEEEDAATYYCQHSRELPWTFGGGTKLDIK
B9: 4-K13-A (antibody, V domains shown)
VH: QAYLQQSGAELVRPGASVKMSCKASGYTFTSYTVHWVKQTPRQGLEWIGAIYPGNVDTSYNQNFKGKATLTVDKSSSTAYMQLSSLTSEDSAVYFCARDGYYAMDYWGQGTSVTVSS
VL: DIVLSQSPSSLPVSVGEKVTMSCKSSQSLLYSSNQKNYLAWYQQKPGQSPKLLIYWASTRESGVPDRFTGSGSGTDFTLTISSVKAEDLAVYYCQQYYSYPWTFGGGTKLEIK

Key:
Assay in all cases: ELISA
[1] = target: T1, SARS-CoV-2 B.1.617.2 spike trimer variant (SARS-CoV-2 B.1.617.2 (Delta), UniProt P0DTC2 16-1213)
[2] = target: SARS-CoV-2 Beta (B.1.351) variant prefusion stabilized spike trimer protein (UniProt P0DTC2 14-1213)
[3] = target: T2, SARS-CoV-2 BA.2 spike trimer variant (SARS-CoV-2 Omicron BA.2, UniProt P0DTC2 16-1213)
[4] = target: T3, SARS-CoV-2 B.1.1.529 spike trimer variant (SARS-CoV-2 B.1.1.529 (Omicron), UniProt P0DTC2 16-1213)
[5] = target: T2, SARS-CoV-2 BA.2 spike trimer variant; remark: listed apart in the source
[6] = target: T3, SARS-CoV-2 B.1.1.529 spike trimer …; remark: listed apart in the source
[7] = target: T3, SARS-CoV-2 B.1.1.529 spike trimer …; remark: listed apart in the source
[8] = target: T2, SARS-CoV-2 BA.2 spike trimer variant; remark: listed apart in the source
[9] = target: T1, SARS-CoV-2 B.1.617.2 spike trimer …; remark: listed apart in the source
[10] = target: T1, SARS-CoV-2 B.1.617.2 spike trimer …; remark: listed apart in the source

Row | Binder | IC50 [1] [nM] | IC50 [2] [nM] | IC50 [3] [nM] | IC50 [4] [nM] | IC50 [5] [nM] | IC50 [6] [nM] | EC50 [7] [nM] | EC50 [8] [nM] | EC50 [9] | IC50 [10]
1 | B1 | 27.4 | 16.8 | 13.8 | 10.1 | 13.8 | 10.1 | 0.5 | 1.06 | 0.251 nM and 0.027 µg/mL | 4.1 µg/mL and 27.4 nM
2 | B2 | 17.5 | 14 | 25.8 | 23.4 | 25.8 | 23.4 | 0.48 | 0.75 | 0.218 nM and 0.034 µg/mL | 2.6 µg/mL and 17.5 nM
3 | B3 | 62.1 | 10.8 | – | – | – | – | – | – | 0.522 nM and 0.081 µg/mL | 9.3 µg/mL and 62.1 nM
4 | B4 | 59.9 | – | – | – | – | – | – | 71.6 | 0.547 nM and 0.085 µg/mL | 9 µg/mL and 59.9 nM
5 | B5 | 19.5 | – | 97.3 | – | 97 | – | 20.6 | 61.9 | 0.063 µg/mL and 0.405 nM | 2.9 µg/mL and 19.5 nM
6 | B6 | 28 | 84.3 | – | – | – | – | 30.1 | 192 | 0.096 µg/mL and 0.625 nM | 4.2 µg/mL and 28 nM
7 | B7 | – | – | – | – | – | – | 1.88 | 181 | 0.12 µg/mL and 0.772 nM | –
8 | B8 | – | 10.8 | – | – | – | – | – | – | – | –
9 | B9 | – | – | – | – | – | – | – | – | 29.3 nM and 4.54 µg/mL | –
